Source: publication PMC7949164

T1: myc-tagged mouse Ccr1 Y18F mutant (mouse) (UniProt P51675)
T1 sequence: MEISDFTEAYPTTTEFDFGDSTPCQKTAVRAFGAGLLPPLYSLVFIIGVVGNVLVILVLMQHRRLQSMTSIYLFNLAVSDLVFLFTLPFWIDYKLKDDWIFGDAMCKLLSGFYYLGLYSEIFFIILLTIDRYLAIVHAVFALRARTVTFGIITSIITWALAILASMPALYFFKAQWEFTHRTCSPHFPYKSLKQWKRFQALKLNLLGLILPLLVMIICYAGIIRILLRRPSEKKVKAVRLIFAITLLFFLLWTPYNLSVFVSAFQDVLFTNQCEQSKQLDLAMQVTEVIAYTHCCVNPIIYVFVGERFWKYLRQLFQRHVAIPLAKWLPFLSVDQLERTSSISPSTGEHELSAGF

B1: recombinant mouse Ccl3 (ligand)
chain: APYGADTPTACCFSYSRKIPRQFIVDYFETSSLCSQPGVIFLTKRNRQICADSKETWVQEYITDLELNA

Biological target: T1, myc-tagged mouse Ccr1 Y18F mutant (mouse)

Row | Molecule | internalisation: cell surface receptor left (MFI in % of buffer alone) after 100 nM chemokine, FACS, L1.2 cells (% cell surface receptor)
1 | recombinant mouse Ccl9/10 (ligand) | 20
2 | B1 | 35
